In patent US8716246B2, “Azuvirin peptides” (The Regents of the University of California, priority 2011, dated 2014):
Square brackets hold non-standard residues; d marks the D form. Peptide text beside a SMILES is read from it. * marks the point of attachment. Oic = O=C(O)[C@@H]1C[C@@H]2CCCC[C@@H]2N1; Cha = N[C@@H](CC1CCCCC1)C(=O)O; Tle = CC(C)(C)[C@H](N)C(=O)O; Nicotinoyl = O=C(c1cccnc1)*; Acm = CC(=O)NC*

How the values were obtained:
[1] = MultiTox-Fluor Multiplex Cytotoxicity Assay, LLC cells; type: cell-based, murine; settings: mouse, Lewis lung carcinoma (LLC) cells; 24 h co-culture; read-out: LD50, LLC cells
Description: Experiments were carried out using MultiTox-Fluor Multiplex Cytotoxicity Assay (Promega Corp., Madison, Wis.) as previously described. This assay simultaneously measures the number of live and dead cells in culture wells based on the activity of two proteases, one a marker of cell viability, and the other a marker of cytotoxicity, which yield products with different excitation and emission spectra. Briefly, for cytotoxicity experiments murine LCC (or RAW 264.7) cells were plated in a 96-well plate at a density of 1×10^4 cells/well in a total volume of 50 μl of culture media and treated with various concentrations of tested peptides (50 μl of 0-400 μM peptides in culture media). Cells' viability was assessed 24 h later by MultiTox-Fluor Multiplex Cytotoxicity Assay (incubation time 1 h). For cell viability experiments, LCC cells were plated in a 96-well plate at a density of 5×10^3 cells/well in a total volume of 50 μl of culture media and treated with various concentrations of tested peptide (50 μl of 0-200 μM peptide in culture media) for 1 hour prior to 0, 2, 4 Gy irradiation. Cell viability was assessed 72 h later by MultiTox-Fluor Multiplex Cytotoxicity Assay (incubation time 1 h). All experiments were carried out in triplicates.

[2] = tested on: human red blood cells (hRBCs)
Description: Human red blood cells (hRBCs). Fresh blood (˜3 ml) was collected from an anonymous donor into a tube that contained heparin as an anticoagulant. An aliquot of blood (200 μl) was removed and washed 4 with 800 μl of cold PBS at room temperature, each centrifugation was for 3 minutes at ˜500×g. A total of 780 μl of supernatant was removed each time. With four washes, this procedure should remove >99.8% of the total serum protein and any heparin anticoagulant. The supernatant was completely removed in the last wash, leaving only the packed red blood cells, which were subsequently diluted 1:20 in PBS to make 5% v/v stock of hRBCs.
Hemolysis assay. The experiments were carried out as previously described. Briefly, 2.5% v/v normal human RBCs were exposed to various concentrations of AzV36-NicL at 37° C. for 30 min. All experiment were carried out in triplicate using 96-well microplate (Costar 3596) and OD at 700 nm was monitored every 30 s. employing the SpectraMAX 250 microplate reader (Molecular Devices, Sunnyvale, Calif.). Controls: PBS, human RBCs, human RBCs+2.5% Triton (100% lysis). The hemolytic effect was calculated as following: […]

rhEphB2/Fc = rhEphB2/Fc (Homo sapiens, UniProt P29323); assay: SPR binding to immobilized rhEphB2/Fc (Biacore 3000); parameters: Fc; purchased R&D Systems, Inc., Minneapolis, Minn
Description: Binding to selected ephrin receptors was measured by surface plasmon resonance on a Biacore3000 instrument. Commercially available ephrin receptors: EphA2, EphB2 and EphB4 (R&D Systems) were immobilized on a CM-5 chip by amine coupling and tested peptides were passed over a chip surface as analytes.
Binding studies. Binding studies were performed by surface plasmon resonance (SPR) on a BIAcore 3000 system (BiaCore AB, Piscataway, N.J.). BIAcore CM5 sensor chips were utilized in all experiments. Binding studies were performed in HBS-EP running buffer (pH=7.4) containing 10 mM HEPES, 150 mM NaCl, 3 mM EDTA, and 0.005% polysorbate 20. Commercially available ephrin receptors: EphA2, EphB2 and EphB4 (R&D Systems, Inc., Minneapolis, Minn.) were immobilized on a CM5 sensor chip using the amine coupling method. The chip was activated by mixing 400 mM N-ethyl-N-(3-dimethylaminopropyl)-carbodiimide hydrochloride and 100 mM N-hydroxysuccinimide. Residual reactive groups on the chip surface were blocked using 1.0 M ethanolamine/HCl (pH=8.5). The flow cell-1 chip, which served as a control, lacked immobilized protein but was treated with N-ethyl-N-(3-dimethylaminopropyl)-carbodiimide hydrochloride, N hydroxysuccinimide, and ethanolamine/HCl. Binding signals were corrected for nonspecific binding by subtracting the flow cell-1 signal (blank surface). To regenerate chip surfaces, bound ligands were removed with 10 mM HCl. Data were analyzed with BIAevaluation 4.1 software (Biacore, Piscataway, N.J.).

in vitro = settings: for peptide concentration remaining in human serum ± SEM (AUC): 37° C.
Description: Serum stability. Human blood serum was prepared using BD Vacutainer→Rapid Serum Tubes (RST) (BD Diagnostics, Franklin Lakes, N.J.) according to manufacturer's recommendations. Serum was harvested and either used fresh or stored at −80° C. Stability of the AzV36-NicL in the human serum was determined as previously described. Briefly, 50 μl of an aqueous peptide stock solution (10 mg/ml) was added to 1.95 ml of 25% pooled, non-heat inactivated human serum in PBS and incubated at 37° C. […] The resulting mixtures were kept at 5° C. for 10 min and then centrifuged at 300 g for 5 min. 100 μl of the supernatants were analyzed using analytical ProStar 210 HPLC system with a ProStar 325 Dual Wavelength detector set at 220 nm and 280 nm (Varian Inc., Palo Alto, Calif.). The mobile phases were: Solvent A, 0.1% TFA (trifluoroacetic acid) in water; solvent B, 0.1% TFA in acetonitrile. Experiments were performed using Vydac 218TP54 C18 column, 4.6×250 mm, 5 μM (Grace Vydac, Hesperia, Calif.) in a linear 0 to 100% gradient of solvent B applied over 100 min at 1 ml/min.

[3] = human, 25% pooled, non-heat inactivated human serum in PBS

## CC(=O)NCSC[C@H](NC(=O)[C@H](CC1CCCCC1)NC(=O)[C@H](CC1CCCCC1)NC(=O)[C@@H](CCCCNC(=O)c1cccnc1)NC(=O)[C@@H](N)Cc1ccc(O)cc1)C(=O)N[C@H](C(=O)N[C@@H](CC1CCCCC1)C(=O)N1[C@H](C(=O)N[C@H](CCCNC(=N)N)C(=O)N[C@@H](Cc2c[nH]cn2)C(=O)N[C@@H](CCCNC(=N)N)C(=O)N[C@H](C(=O)N[C@@H](CC2CCCCC2)C(=O)N[C@@H](CSCNC(C)=O)C(=O)N[C@H](CCCCN)C(N)=O)[C@@H](C)O)C[C@@H]2CCCC[C@@H]21)C(C)(C)C [AzV36-NicL, YkNic-Cha-Cha-Cam-Tle-Cha-Oic-rHRT-Cha-Cam-k-CONH] (H-Y[dK](Nicotinoyl)[Cha][Cha]C(Acm)[Tle][Cha][Oic][dR]HRT[Cha]C(Acm)[dK]-NH2)
[1]
  CC50 at 24 h: 17 ± 2.84 µM
[2]; 20 μM peptide (highest tested), 2.5% hRBCs, 37° C., 30 min
  Hemolysis ± SEM: 9.3±3.0%
[2]; ≦10 μM peptide
  hemolytic effect (in words): non-hemolytic
rhEphB2/Fc
  Kd: 0.0143 ± 0.0033 µM
In vitro; 24 h, 25% human serum in PBS
  peptide concentration remaining in human serum ± SEM (AUC): 100±0.64%
In vitro; 6 days
  peptide concentration remaining in human serum ± SEM (AUC): 97.8±2.86%
In vitro; [3]
  remaining at 24 h, 0.25 mg/ml: 100 ± 0.64%
  remaining at 144 h, 0.25 mg/ml: 97.8 ± 2.86%
